Assays:
[1] = target: Human IL-2 R beta protein, His-Tag (Acro, CD2-H5221) (human) (UniProt P14784); test: BLI; conditions: ligand
[2] = target: Human IL-2 R alpha protein, His Tag (Acro, ILA-H52H9) (human) (UniProt P01589); test: BLI; conditions: ligand
Chain of UniProt P01589 (P01589 22-213): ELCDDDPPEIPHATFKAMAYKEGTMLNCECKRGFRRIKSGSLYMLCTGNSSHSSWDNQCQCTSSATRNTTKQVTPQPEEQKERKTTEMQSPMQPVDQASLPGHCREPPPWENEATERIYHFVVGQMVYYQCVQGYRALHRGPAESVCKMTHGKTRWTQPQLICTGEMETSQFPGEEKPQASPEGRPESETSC

Chain of UniProt P14784 (P14784 27-239): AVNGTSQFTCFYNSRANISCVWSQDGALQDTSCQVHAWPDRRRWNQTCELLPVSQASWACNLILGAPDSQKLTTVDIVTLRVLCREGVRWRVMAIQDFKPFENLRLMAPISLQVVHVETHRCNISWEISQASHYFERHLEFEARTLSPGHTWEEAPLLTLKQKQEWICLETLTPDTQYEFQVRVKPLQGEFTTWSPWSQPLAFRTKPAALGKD

Proleukin (Novartis, hIL-2) (from UniProt P60568 22-153)
Kd [1]: 91.7 nM
Kd [2]: 1.3 nM

— patent US20230104217A1
